Measurements as given in patent publication US10385103B2, “Cell-permeable (ICP)-SOCS3 recombinant protein and uses thereof” (CELLIVERY THERAPEUTICS, INC., priority 2014, dated 2019).

How the values were obtained:
[1] = tested on: AGS cells; experiment: Wound cell migration inhibition in gastric carcinoma cells; type: cell-based; settings: 10 μM 2 hrs, additional 24 hrs
Experimental: AGS cells (gastric cancer cell line) were seeded in a 12 well plate at a density of 2.5×10^5 per well, grown to 90% confluence. Confluent AGS cells were incubated with 10 μM HM#S3B in serum-free medium for 2 hrs prior to changing the growth medium (DMEM/F12, Hyclone, Logan, Utah, USA) and washed twice with PBS, and the monolayer at the center of the well was “wounded” by scraping with a sterilized white pipette tip. Cells were cultured for an additional 24 hrs and cell migration was observed by phase contrast microscopy (Nikon, ECLIPSE Ts2). The migration was quantified by counting the number of cells that migrated from the wound edge into the clear area.

[2] = tested on: Bcl-2, NF-κB (p-p65), cleaved caspase-3 in Hep3B cells; experiment: Immunoblotting of apoptosis-related proteins; type: cell-based, human; settings: 10 μM, 24 hr
Experimental: (§1) Cells were treated for 24 hr with 10 μM HS3B or HM165S3B proteins, lysed in RIPA lysis buffer containing proteinase inhibitor cocktail, incubated for 15 min at 4° C., and centrifuged at 13,000 rpm for 10 min at 4° C. Equal amounts of lysates were separated on 15% SDS-PAGE gels and transferred to a nitrocellulose membrane. The membranes were blocked using 5% skim milk or 5% Albumin in TBST and incubated with the following antibodies: anti-Bcl-2 (Santa Cruz biotechnology), anti-Cleaved Caspase 3 (Cell Signaling Technology), anti-phospho-p65 and anti-p65 (Cell Signaling Technology), then HRP conjugated anti-mouse or anti-rabbit secondary antibody. The expression of each protein was determined by immunoblotting with indicated antibodies. An antibody against β-actin was used as a loading control.

[3] = tested on: Bcl-2, NF-κB (p-p65), cleaved caspase-3 in HepG2 cells; experiment: Immunoblotting of apoptosis-related proteins; type: cell-based, human; settings: 10 μM, 24 hr
Experimental: as §1

[4] = tested on: HepG2 cells; experiment: Induction of apoptosis, Annexin V/7-AAD staining; type: cell-based, human; settings: for induction of apoptosis (Annexin V), HepG2, dose dependence: example 20-1
Experimental: AGS cells (gastric carcinoma cell line) (American Type Culture Collection; ATCC) were seeded in a 12-well plate at a density of 1×10^5 cells/well, and then treated with 10 uM of aMTD/SD-fused SOCS3 for 14 hours. Cancer cell death was analyzed by Annexin V analysis. Annexin V/7-Aminoactinomycin D (7-AAD) staining was performed using flow cytometry according to the manufacturer's guidelines (BD Pharmingen, San Diego, Calif., USA). Briefly, cells were washed three times with ice-cold PBS. The cells were then resuspended in 100 μl of binding buffer and incubated with 1 μl of 7-AAD and 1 μl of annexin V-PE for 30 min in the dark at 37° C. Flow cytometric analysis was immediately performed using a guava easyCyte™ 8 Instrument (Merck Millipore, Darmstadt, Germany).
Annexin V/7-Aminoactinomycin D (7-AAD) staining was performed using flow cytometry according to the manufacturer's guidelines (BD Pharmingen, San Diego, Calif., USA). Briefly, 1×10^6 cells were washed three times with ice-cold PBS. The cells were then resuspended in 100 μl of binding buffer and incubated with 1 μl of 7-AAD and 1 μl of […] for 30 min in the dark at 4° C. Flow cytometric analysis was immediately performed using a guava easyCyte™ 8 Instrument (Merck Millipore, Darmstadt, Germany). In this regard, Cisplatin® (IC50: 30 μM) was used as a reference drug.
The effect of inducing apoptosis of Chang liver cells was measured in the same manner as in Example 11-2, except that as target cell lines, normal Chang liver cells and hepatocellular carcinoma cell lines, Hep3B, HepG2, Huh7, and SK-HEP-1 were used, and as a reference drug, 5-FU® (IC50: 40 μM) was used.

[5] = tested on: TNF-α; experiment: LPS/IFN-γ-induced cytokine secretion in peritoneal macrophages (cytometric bead array), TNF-α; type: cell-based, C3H/HeJ mice; settings: 10 μM protein; IFN-γ and LPS
Experimental: Peritoneal macrophages were obtained from C3H/HeJ mice (Doo-Yeol Biotech Co. Ltd. Korea) Peritoneal macrophages were incubated with 10 μM SOCS3 recombinant proteins (1:HS3, 2:HM165S3, 3:HM165S3A and 4:HM165S3B, respectively) for 1 hr at 37° C. and then stimulated them with LPS (Lipopolysaccharide)(500 ng/ml) and/or IFN-γ (100 U/ml) without removing iCP-SOCS3 proteins for 3, 6, or 9 hrs. The culture media were collected, and the extracellular levels of cytokine (TNF-α, IL-6) were measured by a cytometric bead array (BD Pharmingen, San Diego, Calif., USA) according to the manufacturer's instructions.

[6] = tested on: HepG2 cells; experiment: Invasion assay (matrigel-coated Transwell); type: cell-based, human; settings: 24 hrs, compared with the control proteins
Experimental: The lower surface of Transwell inserts (Costar) was coated with 0.1% gelatin, the upper surface of Transwell inserts was coated with matrigel (40 μg per well; BD Pharmingen, San Diego, Calif., USA), and the membranes were allowed to dry for 1 hr at room temperature. The Transwell inserts were assembled into a 24-well plate, and the lower chamber was filled with growth media containing 10% FBS and FGF2 (40 ng/ml). Cells (5×10^5) were added to each upper chamber, and the plate was incubated at 37° C. in a 5% CO2 incubator for 24 hrs. Migrated cells were stained with 0.6% hematoxylin and 0.5% eosin and counted.

[7] = tested on: Chang cell; experiment: Cell viability of non-cancer cells, CellTiter-Glo; type: cell-based, human; settings: 10 μM over 4 days
Experimental: Cells originated from human hepatocellular carcinoma cell (Hep3B, HepG2, Huh-7, SK-Hep1), human normal cells (HEK293, HaCaT, Chang liver cell) and mouse fibroblast (NIH3T3) were purchased from ATCC (Manassas, Va., USA) and KCLB (Seoul, Korea). All the cells were maintained as recommended by the supplier. These cells (3×10^3/well) were seeded in 96 well plates. The next day, cells were treated with DMEM (vehicle) or 10 μM recombinant SOCS3 proteins for 96 hrs in the presence of serum (2%). Proteins were replaced daily. Cell growth and survival were evaluated with the CellTiter-Glo Cell Viability Assay (Promega, Madison, Wis.). Measurements using a Luminometer (Turner Designs, Sunnyvale, Calif.) were conducted following the manufacturer's protocol.

B1: HM165S3B: His-tagged recombinant protein of aMTD165, human SOCS3 and solubilization domain B; prototype improved cell-permeable SOCS3 (protein)
chain: MGSSHHHHHHSSGLVPRGSHMALAVPVALAIVPVTHSKFPAAGMETSRPLDTSLRLKTFSSKSEYQLVVNAVRKLQESGFYWSAVTGGEANLLLSAEPAGTFLIRDSSDQRHFFTLSVKTQSGTKNLRIQCEGGSFSLQSDPRSTQPVPRFDCVLKLVHHYMETPPPGAPSFPSPPTEPSSEVPEQPSAQPLPGSPPRRAYYIYSGGEKIPLVLSRPLSSNVATLQHLCRKTVNGHLDSYEKVTQLPGPIREFLDQYDAPLGSMAEQSDKDVKYYTLEEIQKHKDSKSTWVILHHKVYDLTKFLEEHPGGEEVLGEQAGGDATENFEDVGHSTDARELSKTYIIGELHPDDRSKIAKPSETL
modifications: Amino acid sequence of HM165S3B
inhibition of cell migration (wound) [1]: inhibiting migration of gastric carcinoma cells | inhibition of cell migration (wound) ([1]; listed as aMTD165-fused SOCS3 recombinant protein): showed the most effective inhibition of cancer cell migration | expression of Bcl-2, Hep3B [2]: dramatically reduced | expression of NF-κB (p-p65), Hep3B [2]: dramatically reduced | level of cleaved caspase-3, Hep3B [2]: increased | expression of Bcl-2, HepG2 [3]: dramatically reduced | expression of NF-κB (p-p65), HepG2 [3]: dramatically reduced | level of cleaved caspase-3, HepG2 [3]: increased | induction of apoptosis (Annexin V), HepG2, dose dependence [4]: dose-dependently efficient inducer of apoptosis | induction of apoptosis (Annexin V), HepG2, dose dependence ([4]; listed as iCP-SOCS3): upon treatment of 10 uM or more of iCP-SOCS3, there was no difference in induction of apoptosis | induction of apoptosis (Annexin V), HepG2 ([4]; example 20-2): considerably efficient inducer of apoptosis | effect on TNF-α secretion [5]: showed the greatest inhibitory effect on cytokine secretion | invasion, HepG2 [6]: remarkable decrease in invasion | cell viability of non-cancer cells (Chang cell) [7]: not overly toxic to normal cells
